Measured values taken from article PMC8033513 (2021).

B1: extra‐cellular domain (ECD) of mouse DCC (Fc fusion)
chain: HLQVTGFQIKPFTSLHFVSEPSDAVTMRGGNVLLNCSAESDRGVPVIKWKKDGLILALGMDDRKQQLPNGSLLIQNILHSRHHKPDEGLYQCEASLADSGSIISRTAKVTVAGPLRFLSQTESITAFMGDTVLLKCEVIGEPMPTIHWQKNQQDLNPLPGDSRVVVLPSGALQISRLQPGDSGVYRCSARNPASIRTGNEAEVRILSDPGLHRQLYFLQRPSNVIAIEGKDAVLECCVSGYPPPSFTWLRGEEVIQLRSKKYSLLGGSNLLISNVTDDDSGTYTCVVTYKNENISASAELTVLVPPWFLNHPSNLYAYESMDIEFECAVSGKPVPTVNWMKNGDVVIPSDYFQIVGGSNLRILGVVKSDEGFYQCVAENEAGNAQSSAQLIVPKPAIPSSSILPSAPRDVLPVLVSSRFVRLSWRPPAEAKGNIQTFTVFFSREGDNRERALNTTQPGSLQLTVGNLKPEAMYTFRVVAYNEWGPGESSQPIKVATQPELQVPGPVENLHAVSTSPTSILITWEPPAYANGPVQGYRLFCTEVSTGKEQNIEVDGLSYKLEGLKKFTEYTLRFLAYNRYGPGVSTDDITVVTLSDVPSAPPQNISLEVVNSRSIKVSWLPPPSGTQNGFITGYKIRHRKTTRRGEMETLEPNNLWYLFTGLEKGSQYSFQVSAMTVNGTGPPSNWYTAETPENDLDESQVPDQPSSLHVRPQTNCIIMSWTPPLNPNIVVRGYIIGYGVGSPYAETVRVDSKQRYYSIERLESSSHYVISLKAFNNAGEGVPLYESATTRSITDPTDPVDYYPLLDDFPTSGPDVSTPMLPPVGVQAVALTHEAVRVSWADNSVPKNQKTSDVRLYTVRWRTSFSASAKYKSEDTTSLSYTATGLKPNTMYEFSVMVTKNRRSSTWSMTAHATTYEAAPTSAPKDLTVITREGKPRAVIVSWQPPLEANGKITAYILFYTLDKNIPIDDWIMETISGDRLTHQIMDLSLDTMYYFRIQARNVKGVGPLSDPILFRTLKVEHPDKMANDQGRHGDGGYWPVDTNLIDRSTLNEPPIGQMHPPHGSVTPQKNSN
B2: extra‐cellular domain (ECD) of mouse Neogenin (Fc fusion)
chain: RPASGAAATKSGSPPQSAGASVRTFTPFYFLVEPVDTLSVRGSSVILNCSAYSEPSPNIEWKKDGTFLNLESDDRRQLLPDGSLFISNVVHSKHNKPDEGFYQCVATVDNLGTIVSRTAKLTVAGLPRFTSQPEPSSVYVGNSAILNCEVNADLVPFVRWEQNRQPLLLDDRIVKLPSGTLVISNATEGDGGLYRCIVESGGPPKFSDEAELKVLQDPEEIVDLVFLMRPSSMMKVTGQSAVLPCVVSGLPAPVVRWMKNEEVLDTESSGRLVLLAGGCLEISDVTEDDAGTYFCIADNGNKTVEAQAELTVQVPPGFLKQPANIYAHESMDIVFECEVTGKPTPTVKWVKNGDVVIPSDYFKIVKEHNLQVLGLVKSDEGFYQCIAENDVGNAQAGAQLIILEHDVAIPTLPPTSLTSATTDHLAPATTGPLPSAPRDVVASLVSTRFIKLTWRTPASDPHGDNLTYSVFYTKEGVARERVENTSQPGEMQVTIQNLMPATVYIFKVMAQNKHGSGESSAPLRVETQPEVQLPGPAPNIRAYATSPTSITVTWETPLSGNGEIQNYKLYYMEKGTDKEQDIDVSSHSYTINGLKKYTEYSFRVVAYNKHGPGVSTQDVAVRTLSDVPSAAPQNLSLEVRNSKSIVIHWQPPSSTTQNGQITGYKIRYRKASRKSDVTETLVTGTQLSQLIEGLDRGTEYNFRVAALTVNGTGPATDWLSAETFESDLDETRVPEVPSSLHVRPLVTSIVVSWTPPENQNIVVRGYAIGYGIGSPHAQTIKVDYKQRYYTIENLDPSSHYVITLKAFNNVGEGIPLYESAVTRPHTDTSEVDLFVINAPYTPVPDPTPMMPPVGVQASILSHDTIRITWADNSLPKHQKITDSRYYTVRWKTNIPANTKYKNANATTLSYLVTGLKPNTLYEFSVMVTKGRRSSTWSMTAHGATFELVPTSPPKDVTVVSKEGKPRTIIVNWQPPSEANGKITGYIIYYSTDVNAEIHDWVIEPVVGNRLTHQIQELTLDTPYYFKIQARNSKGMGPMSEAVQFRTPKADSSDKMPNDQALGSAGKGSRLPDLGSDYKPPMSGSNSPHGSPTSPLDSNML
B3: extra‐cellular domain (ECD) of rat UNC5H2 (Fc fusion)
chain: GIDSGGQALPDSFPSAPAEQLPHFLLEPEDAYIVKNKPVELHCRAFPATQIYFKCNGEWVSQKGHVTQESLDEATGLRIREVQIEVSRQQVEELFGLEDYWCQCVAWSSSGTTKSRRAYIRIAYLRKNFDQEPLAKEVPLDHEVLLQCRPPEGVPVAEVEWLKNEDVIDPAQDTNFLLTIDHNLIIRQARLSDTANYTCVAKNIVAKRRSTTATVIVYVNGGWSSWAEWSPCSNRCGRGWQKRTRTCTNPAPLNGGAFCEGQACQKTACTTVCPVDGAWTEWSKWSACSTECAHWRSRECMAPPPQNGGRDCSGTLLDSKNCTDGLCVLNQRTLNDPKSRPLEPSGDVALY
B4: extra‐cellular domain (ECD) of human UNC5H3 (domain or fragment)
chain: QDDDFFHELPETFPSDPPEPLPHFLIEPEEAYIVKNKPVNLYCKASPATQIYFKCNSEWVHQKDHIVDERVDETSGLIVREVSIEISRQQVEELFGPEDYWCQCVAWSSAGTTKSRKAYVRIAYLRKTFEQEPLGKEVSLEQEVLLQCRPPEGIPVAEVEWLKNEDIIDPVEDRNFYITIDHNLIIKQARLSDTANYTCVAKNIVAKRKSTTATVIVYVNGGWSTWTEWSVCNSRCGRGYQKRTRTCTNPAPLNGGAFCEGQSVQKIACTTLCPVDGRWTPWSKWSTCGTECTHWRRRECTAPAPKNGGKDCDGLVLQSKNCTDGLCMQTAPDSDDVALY
B5: chicken netrin‐2L (netrin‐2‐like) (ligand)
chain: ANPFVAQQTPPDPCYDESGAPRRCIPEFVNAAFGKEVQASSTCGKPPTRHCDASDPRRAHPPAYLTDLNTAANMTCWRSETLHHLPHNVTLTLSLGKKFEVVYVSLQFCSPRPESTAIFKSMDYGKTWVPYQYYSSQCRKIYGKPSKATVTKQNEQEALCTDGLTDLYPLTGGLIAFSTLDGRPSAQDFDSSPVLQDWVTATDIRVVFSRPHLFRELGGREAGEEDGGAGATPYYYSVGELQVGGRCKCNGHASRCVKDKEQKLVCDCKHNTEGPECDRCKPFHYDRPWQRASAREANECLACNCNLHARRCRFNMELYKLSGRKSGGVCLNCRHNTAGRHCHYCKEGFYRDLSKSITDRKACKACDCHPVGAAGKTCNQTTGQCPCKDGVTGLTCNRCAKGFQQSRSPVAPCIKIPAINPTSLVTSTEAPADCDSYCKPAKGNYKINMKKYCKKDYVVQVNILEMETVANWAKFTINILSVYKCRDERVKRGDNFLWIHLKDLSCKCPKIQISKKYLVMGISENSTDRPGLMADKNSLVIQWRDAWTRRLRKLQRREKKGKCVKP
B6: extra‐cellular domain (ECD) of human UNC5H1 (domain or fragment)
chain: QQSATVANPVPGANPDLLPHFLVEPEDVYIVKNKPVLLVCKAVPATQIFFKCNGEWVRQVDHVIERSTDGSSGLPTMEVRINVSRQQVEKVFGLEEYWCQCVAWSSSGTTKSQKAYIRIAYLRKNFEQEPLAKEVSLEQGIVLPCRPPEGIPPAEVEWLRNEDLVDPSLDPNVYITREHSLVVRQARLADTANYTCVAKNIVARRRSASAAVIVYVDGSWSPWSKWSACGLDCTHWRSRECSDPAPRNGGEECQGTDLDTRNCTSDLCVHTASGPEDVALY

Key:
Test in all cases: BLI
[1] = target: human netrin‐1 (human, UniProt O95631 25-604)
[2] = target: B6
[3] = target: B3
[4] = target: B2
[5] = target: B1
[6] = target: B4

| Binder | Kd [1] [nM] | further results |
| --- | --- | --- |
| B1 | 6.3 |  |
| B2 | 7.8 |  |
| B3 | 6.9 |  |
| B4 | 5.4 |  |
| B5 |  | Kd [2]: 106 nM; Kd [3]: 8.8 nM; Kd [4]: 51.7 nM; Kd [5]: 31 nM; Kd [6]: 4.3 nM |
| B6 | 12.2 |  |
